Here are results for 2 substances from doi:10.1101/2025.11.15.688623.

The target of assay [1] is AccE5 (ε-subunit) (Mycobacterium smegmatis (endogenous in M. smegmatis)). Nature of the assay: cryo-EM structure.
Assay [2] addresses AccA3 (biotin carboxylase subunit with C-terminal BCCP domain) (Mycobacterium smegmatis (endogenous in M. smegmatis)). Nature of the assay: cryo-EM structure.

In assay [1], AccE5 (ε-subunit) (natural protein) gave a stoichiometry N of 2.
“AccA3 (biotin carboxylase subunit with C-terminal BCCP domain) (enzyme)” gave a stoichiometry N in assay [2] of 4.
